Assay results published in article PMC4557955.

Tested on: BPs gp33103 repressor (short, prophage-encoded form) (Mycobacteriophage BPs)
Assay: EMSA
Conditions: EMSA: 20 mM Tris pH 7.5, 10 mM EDTA, 25 mM NaCl, 10 mM spermidine, 1 mM DTT, 1 ug calf thymus DNA in 10 ul, room temperature 30 min, 5% native gel …

Substance | Kd [µM]
26-27 intergenic region (O27) | 0.9
33-34 intergenic region wild type (366 bp) | 2.61
GCATTTTCCAATAGACGACATATGTGCCTATGTTGGTGCACA (double strand) [O61-R] | 19.5
54-55 intergenic region (O55) | 2.6
CACACACGACGCTTGCACCGCGACATATGTCGGTTTTGCAGACGTGCAGGTT (double strand) [O6-L] | 10.5
CAAACGCAAAAGTTCGGGCGTGGCGCATTTTCCAATAGAC (double strand) [TIR-5] | 12.5
5-6 intergenic region (O6) | 2.75
TCGGACATGGTGAACGCTTGCGACATATGTCGCCAATGTGTGCATCTTTGCA (double strand) [O55-L] | 8.5
GCATCACGGACGCTGCTATCCGACATATGTCGTGGATGATCGGGATATGGCC (double strand) [O27-R] | 11
TCCAATAGACGACATATGTCGCT (double strand) [TIR-6] | 9.5
60-61 intergenic region (O61) | 3.4
GCATTTTCCAATAGACCGCATATGTCGCTATGTTGGTGCACA (double strand) [O27-L] | 38.5
